Source: patent US20140087995A1 (published 2014)
Numbered stars: 1 amine (or outer) side, 2 acyl side, 3 side chain; on linkers, the order of the positions; unused ones are H or OH. Bridge positions count the residues as written; N and C are the ends. Side chains are listed from the residue outwards. Ends that are not written are not given here. * marks the point of attachment. C20 diacid = O=C(O)CCCCCCCCCCCCCCCCCCC(=O)*; γGlu = O=C(O)[C@H](CCC(=O)[*:2])N[*:1]

T1: rat calcitonin receptor (rat, UniProt P32214 25-516)
T1 construct: whole, on cells; Membranes of transiently transfected BHK tk'ts 13 cells (Assay VIII); also called rCTR
T1 sequence (looked up): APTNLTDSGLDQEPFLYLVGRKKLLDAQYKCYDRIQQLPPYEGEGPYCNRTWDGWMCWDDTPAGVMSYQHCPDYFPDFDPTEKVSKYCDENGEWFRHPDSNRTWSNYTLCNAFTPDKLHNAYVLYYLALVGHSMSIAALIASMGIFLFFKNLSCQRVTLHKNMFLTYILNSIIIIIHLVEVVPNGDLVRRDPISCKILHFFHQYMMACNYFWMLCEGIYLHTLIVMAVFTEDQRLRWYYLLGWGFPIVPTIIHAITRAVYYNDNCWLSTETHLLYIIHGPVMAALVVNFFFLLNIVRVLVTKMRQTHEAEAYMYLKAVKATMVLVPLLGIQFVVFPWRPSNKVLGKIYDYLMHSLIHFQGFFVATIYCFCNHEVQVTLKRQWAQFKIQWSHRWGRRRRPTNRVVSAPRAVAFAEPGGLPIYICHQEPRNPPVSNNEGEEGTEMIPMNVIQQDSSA

T2: human calcitonin receptor (human, UniProt P30988 25-474)
T2 construct: whole, on cells; Membranes of a stably transfected BHK cell line (Assay VII); also called hCTR; hCT
T2 sequence (looked up): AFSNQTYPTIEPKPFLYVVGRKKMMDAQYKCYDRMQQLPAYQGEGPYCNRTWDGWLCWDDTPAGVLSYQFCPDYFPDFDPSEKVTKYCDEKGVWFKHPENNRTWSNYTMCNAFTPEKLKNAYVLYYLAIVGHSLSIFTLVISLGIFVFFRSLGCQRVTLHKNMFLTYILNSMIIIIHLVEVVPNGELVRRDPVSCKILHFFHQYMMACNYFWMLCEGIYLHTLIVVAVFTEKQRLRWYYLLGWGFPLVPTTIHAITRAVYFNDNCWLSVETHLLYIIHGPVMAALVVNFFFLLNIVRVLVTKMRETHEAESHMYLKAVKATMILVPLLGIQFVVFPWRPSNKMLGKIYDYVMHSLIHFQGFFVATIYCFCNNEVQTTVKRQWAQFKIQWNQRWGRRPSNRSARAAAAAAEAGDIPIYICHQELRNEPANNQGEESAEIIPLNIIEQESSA

T3: rat amylin receptor (rat calcitonin receptor + rat RAMP 3) (rat, UniProt P32214 25-516; Q9JJ73 23-147)
T3 construct: whole, on cells; Membranes of transiently transfected BHK tk'ts 13 cells (Assay VI); also called rAmylin-R; rat amylin 3(a) receptor
T3 sequence (looked up) 1: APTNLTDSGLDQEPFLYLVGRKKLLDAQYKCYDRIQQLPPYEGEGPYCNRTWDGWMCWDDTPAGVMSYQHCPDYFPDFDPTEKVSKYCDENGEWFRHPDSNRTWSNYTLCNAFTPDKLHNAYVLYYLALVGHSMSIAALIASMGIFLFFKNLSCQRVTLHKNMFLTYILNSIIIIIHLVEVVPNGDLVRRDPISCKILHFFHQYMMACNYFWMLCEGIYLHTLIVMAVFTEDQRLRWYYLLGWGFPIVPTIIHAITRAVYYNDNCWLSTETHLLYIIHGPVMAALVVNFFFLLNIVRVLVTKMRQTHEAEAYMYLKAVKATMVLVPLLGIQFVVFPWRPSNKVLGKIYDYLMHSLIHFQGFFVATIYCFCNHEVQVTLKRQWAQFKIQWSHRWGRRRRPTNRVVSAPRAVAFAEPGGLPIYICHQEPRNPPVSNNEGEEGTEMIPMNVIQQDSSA
T3 sequence (looked up) 2: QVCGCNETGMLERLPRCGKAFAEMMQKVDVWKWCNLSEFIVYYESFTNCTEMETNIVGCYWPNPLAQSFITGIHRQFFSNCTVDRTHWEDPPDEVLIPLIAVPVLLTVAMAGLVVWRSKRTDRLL


Columns and labels:
[1] = target: T1, rat calcitonin receptor; experiment: ratio IC50 rat calcitonin receptor / IC50 rat amylin receptor (reference)
[2] = target: T2, human calcitonin receptor; experiment: ratio IC50 human calcitonin receptor / IC50 human amylin receptor (reference)
Method in brief: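 Membranes (35 ng/μL final) + SPA beads, 50 mM Hepes pH 7.4 buffer with 1 mM CaCl2, 5 mM MgCl₂, 0.1% OA, 0.02% Tween20; 120 min, 25° C, shaking; centrifuged, counted; IC₅₀ by one-site binding competition.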

[3] = target: T1, rat calcitonin receptor; experiment: SPA competition with 125I-calcitonin, membranes of BHK cells with rat calcitonin receptor (Assay VIII)
[4] = target: T3, rat amylin receptor (rat calcitonin …); experiment: SPA competition with 125I-rat amylin, membranes of BHK cells with rat calcitonin receptor + rat RAMP3 (Assay VI)

Binder | Ratio rCT/rAmylin binding [1] | Ratio hCT/hAmylin binding [2] | IC50 [3] | IC50 [4]
K([γGlu-C20 diacid])CNTATCATQRLAHFLRHSSPNFGAIPSSTNVGPNTP-NH2 (disulfide 2-7; N-terminus assumed; SMILES CC[C@H](C)[C@H](NC(=O)[C@H](C)NC(=O)CNC(=O)[C@H](Cc1ccccc1)NC(=O)[C@H](CC(N)=O)NC(=O)[C@@H]1CCCN1C(=O)[C@H](CO)NC(=O)[C@H](CO)NC(=O)[C@H](Cc1c[nH]cn1)NC(=O)[C@H](CCCNC(=N)N)NC(=O)[C@H](CC(C)C)NC(=O)[C@H](Cc1ccccc1)NC(=O)[C@H](Cc1c[nH]cn1)NC(=O)[C@H](C)NC(=O)[C@H](CC(C)C)NC(=O)[C@H](CCCNC(=N)N)NC(=O)[C@H](CCC(N)=O)NC(=O)[C@@H](NC(=O)[C@H](C)NC(=O)[C@@H]1CSSC[C@H](NC(=O)[C@@H](N)CCCCNC(=O)CC[C@H](NC(=O)CCCCCCCCCCCCCCCCCCC(=O)O)C(=O)O)C(=O)N[C@@H](CC(N)=O)C(=O)N[C@@H]([C@@H](C)O)C(=O)N[C@@H](C)C(=O)N[C@@H]([C@@H](C)O)C(=O)N1)[C@@H](C)O)C(=O)N1CCC[C@H]1C(=O)N[C@@H](CO)C(=O)N[C@@H](CO)C(=O)N[C@H](C(=O)N[C@@H](CC(N)=O)C(=O)N[C@H](C(=O)NCC(=O)N1CCC[C@H]1C(=O)N[C@@H](CC(N)=O)C(=O)N[C@H](C(=O)N1CCC[C@H]1C(N)=O)[C@@H](C)O)C(C)C)[C@@H](C)O) | 3 | 1.2 | 0.371 nM | 0.125 nM
K([γGlu-γGlu-C20 diacid])CNTATCATQRLAEFLRHSSPNFGAIPSSTNVGRNTY-NH2 (disulfide 2-7; N-terminus assumed; SMILES CC[C@H](C)[C@H](NC(=O)[C@H](C)NC(=O)CNC(=O)[C@H](Cc1ccccc1)NC(=O)[C@H](CC(N)=O)NC(=O)[C@@H]1CCCN1C(=O)[C@H](CO)NC(=O)[C@H](CO)NC(=O)[C@H](Cc1c[nH]cn1)NC(=O)[C@H](CCCNC(=N)N)NC(=O)[C@H](CC(C)C)NC(=O)[C@H](Cc1ccccc1)NC(=O)[C@H](CCC(=O)O)NC(=O)[C@H](C)NC(=O)[C@H](CC(C)C)NC(=O)[C@H](CCCNC(=N)N)NC(=O)[C@H](CCC(N)=O)NC(=O)[C@@H](NC(=O)[C@H](C)NC(=O)[C@@H]1CSSC[C@H](NC(=O)[C@@H](N)CCCCNC(=O)CC[C@H](NC(=O)CC[C@H](NC(=O)CCCCCCCCCCCCCCCCCCC(=O)O)C(=O)O)C(=O)O)C(=O)N[C@@H](CC(N)=O)C(=O)N[C@@H]([C@@H](C)O)C(=O)N[C@@H](C)C(=O)N[C@@H]([C@@H](C)O)C(=O)N1)[C@@H](C)O)C(=O)N1CCC[C@H]1C(=O)N[C@@H](CO)C(=O)N[C@@H](CO)C(=O)N[C@H](C(=O)N[C@@H](CC(N)=O)C(=O)N[C@H](C(=O)NCC(=O)N[C@@H](CCCNC(=N)N)C(=O)N[C@@H](CC(N)=O)C(=O)N[C@H](C(=O)N[C@@H](Cc1ccc(O)cc1)C(N)=O)[C@@H](C)O)C(C)C)[C@@H](C)O, also called compound 88) | 84.9 | 46.5 | 196 nM | 2.31 nM
K([γGlu-γGlu-C20 diacid])CNTATCATQRLANFLRHSSPNFGAIPSSTPVGPRTY-NH2 (disulfide 2-7; N-terminus assumed; SMILES CC[C@H](C)[C@H](NC(=O)[C@H](C)NC(=O)CNC(=O)[C@H](Cc1ccccc1)NC(=O)[C@H](CC(N)=O)NC(=O)[C@@H]1CCCN1C(=O)[C@H](CO)NC(=O)[C@H](CO)NC(=O)[C@H](Cc1c[nH]cn1)NC(=O)[C@H](CCCNC(=N)N)NC(=O)[C@H](CC(C)C)NC(=O)[C@H](Cc1ccccc1)NC(=O)[C@H](CC(N)=O)NC(=O)[C@H](C)NC(=O)[C@H](CC(C)C)NC(=O)[C@H](CCCNC(=N)N)NC(=O)[C@H](CCC(N)=O)NC(=O)[C@@H](NC(=O)[C@H](C)NC(=O)[C@@H]1CSSC[C@H](NC(=O)[C@@H](N)CCCCNC(=O)CC[C@H](NC(=O)CC[C@H](NC(=O)CCCCCCCCCCCCCCCCCCC(=O)O)C(=O)O)C(=O)O)C(=O)N[C@@H](CC(N)=O)C(=O)N[C@@H]([C@@H](C)O)C(=O)N[C@@H](C)C(=O)N[C@@H]([C@@H](C)O)C(=O)N1)[C@@H](C)O)C(=O)N1CCC[C@H]1C(=O)N[C@@H](CO)C(=O)N[C@@H](CO)C(=O)N[C@H](C(=O)N1CCC[C@H]1C(=O)N[C@H](C(=O)NCC(=O)N1CCC[C@H]1C(=O)N[C@@H](CCCNC(=N)N)C(=O)N[C@H](C(=O)N[C@@H](Cc1ccc(O)cc1)C(N)=O)[C@@H](C)O)C(C)C)[C@@H](C)O) | 137 | 48.6 | 52.4 nM | 0.381 nM
K([γGlu-γGlu-C20 diacid])CNTATCATQRLANFLRHSSPNFGAIPSSTNVGHNTY-NH2 (disulfide 2-7; N-terminus assumed; SMILES CC[C@H](C)[C@H](NC(=O)[C@H](C)NC(=O)CNC(=O)[C@H](Cc1ccccc1)NC(=O)[C@H](CC(N)=O)NC(=O)[C@@H]1CCCN1C(=O)[C@H](CO)NC(=O)[C@H](CO)NC(=O)[C@H](Cc1c[nH]cn1)NC(=O)[C@H](CCCNC(=N)N)NC(=O)[C@H](CC(C)C)NC(=O)[C@H](Cc1ccccc1)NC(=O)[C@H](CC(N)=O)NC(=O)[C@H](C)NC(=O)[C@H](CC(C)C)NC(=O)[C@H](CCCNC(=N)N)NC(=O)[C@H](CCC(N)=O)NC(=O)[C@@H](NC(=O)[C@H](C)NC(=O)[C@@H]1CSSC[C@H](NC(=O)[C@@H](N)CCCCNC(=O)CC[C@H](NC(=O)CC[C@H](NC(=O)CCCCCCCCCCCCCCCCCCC(=O)O)C(=O)O)C(=O)O)C(=O)N[C@@H](CC(N)=O)C(=O)N[C@@H]([C@@H](C)O)C(=O)N[C@@H](C)C(=O)N[C@@H]([C@@H](C)O)C(=O)N1)[C@@H](C)O)C(=O)N1CCC[C@H]1C(=O)N[C@@H](CO)C(=O)N[C@@H](CO)C(=O)N[C@H](C(=O)N[C@@H](CC(N)=O)C(=O)N[C@H](C(=O)NCC(=O)N[C@@H](Cc1c[nH]cn1)C(=O)N[C@@H](CC(N)=O)C(=O)N[C@H](C(=O)N[C@@H](Cc1ccc(O)cc1)C(N)=O)[C@@H](C)O)C(C)C)[C@@H](C)O, also called compound 86) | 126 | 159 | 352 nM | 2.8 nM
K([γGlu-γGlu-C20 diacid])CNTATCATQRLAEFLRHSSPNFGAIPSSTNVGRETY-NH2 (disulfide 2-7; N-terminus assumed; SMILES CC[C@H](C)[C@H](NC(=O)[C@H](C)NC(=O)CNC(=O)[C@H](Cc1ccccc1)NC(=O)[C@H](CC(N)=O)NC(=O)[C@@H]1CCCN1C(=O)[C@H](CO)NC(=O)[C@H](CO)NC(=O)[C@H](Cc1c[nH]cn1)NC(=O)[C@H](CCCNC(=N)N)NC(=O)[C@H](CC(C)C)NC(=O)[C@H](Cc1ccccc1)NC(=O)[C@H](CCC(=O)O)NC(=O)[C@H](C)NC(=O)[C@H](CC(C)C)NC(=O)[C@H](CCCNC(=N)N)NC(=O)[C@H](CCC(N)=O)NC(=O)[C@@H](NC(=O)[C@H](C)NC(=O)[C@@H]1CSSC[C@H](NC(=O)[C@@H](N)CCCCNC(=O)CC[C@H](NC(=O)CC[C@H](NC(=O)CCCCCCCCCCCCCCCCCCC(=O)O)C(=O)O)C(=O)O)C(=O)N[C@@H](CC(N)=O)C(=O)N[C@@H]([C@@H](C)O)C(=O)N[C@@H](C)C(=O)N[C@@H]([C@@H](C)O)C(=O)N1)[C@@H](C)O)C(=O)N1CCC[C@H]1C(=O)N[C@@H](CO)C(=O)N[C@@H](CO)C(=O)N[C@H](C(=O)N[C@@H](CC(N)=O)C(=O)N[C@H](C(=O)NCC(=O)N[C@@H](CCCNC(=N)N)C(=O)N[C@@H](CCC(=O)O)C(=O)N[C@H](C(=O)N[C@@H](Cc1ccc(O)cc1)C(N)=O)[C@@H](C)O)C(C)C)[C@@H](C)O) | 158 | 14.7 | 452 nM | 2.86 nM
